Assay results from paper PMC4894967.

Molecular target: ATM/Tel1 kinase from Schizosaccharomyces pombe (S. pombe) (UniProt O74630)
Assay: cryo-EM structure; single-particle cryo-EM of purified ATM/Tel1, 20-50 ug/ml in 20 mM HEPES pH 8.0, 40 mM KOAc, 5 mM MgCl2, 0.1% trehalose, 2 mM DTT, 0.01% NP-40; 8.7 Å; initial model from negative-stain RCT

Substance: ATM/Tel1 kinase from Schizosaccharomyces pombe, O74630 1-2812
- stoichiometry N: 2
